Reference: a protein production outcome set (Wang et al. 2014)

assay: label from the status in PepcDB records
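Further: failed if final PepcDB status was selected cloned or expressed and not failed if soluble or beyond.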

Sequence | protein production
MEEVSSEMEVEVQNRQLSDSSPAQNVKKFGLKNSIQTNFGSDYVFQIVPKIDWTAIAVSLSTNTVKLYSPVTGQYYGECKGHSDTVNQIAFSSDSAASPHVLHSCSSDGTIRSWDTRSFQQVSRIDTGNDQEIFSFSYGGAADNLLAGGCKEQVLLWDWRNSKQVACLEESHMDDVTQVHFVPNKPNKLLSASVDGLICLFNTEGDINDDDHLESVINVGTSIGKIGFLGDGYKKLWCLTHIETLSIWNWEDGSCEVNLEKARELASDSWTQDNVDYFVDCHCPGGEDLWVIGGTCAGTVGYFPVNYKQPGSIGTAEAILGGGHIDVVRSVLQMPGEYGGAAGLFGWTGGEDGRLCCWKSDEDATEINRSWTSSELVVKPPRNRKKNRHSPY | failed
MEFIVDSVDKTMHIGRQLGSLVNKGDILCLTGDLGTGKTHISKGIAEGLGIDEHITSPTFNIVNEYHSGRLTLYHFDVYRVNDPDEIEAIGFDEYIFGDGVSLIEWANYIEELIPEEYIHIKIEKLPDMGENFRKITINGYGDRYNYIKEIKECLEHHHHHH | not failed
MEFKDYYATLGVEPSAGDAEIKTAYRRLARKYHPDVSKEAGAEDKFKAINEAYEALRDPAKRKAYDQLKAQGFRPGDEFQAPPNYGGGQGFDFEEVFGNGGAGGGFSDFFESLFAGQRGGRPRGPGAGPGAGAGPQARGDTRAKLAVPLEAVYSGDSVRITINGKQLDVRVPKGVQPGQVIRLSGQGNGGGNLLLEIEYAAHPHFEVDGRNILYTLQVMPWQAALGTTISVPTLGGSVELKVPADSDAGRKLRLRGRGLPGTTPGDQIVELEILAPAPTDDAQKKAYRNLAKAFGETVS | failed
MEFKDYYKIMGVPRDASQDDIKRAYRKLARKYHPDVSKDPQAEARFKELGEAYEVLKDPEKRVAYDRLGTNWKADQEFRPPPDWNAGFEFSQQGFTGADAAQFSEFFESLFGRSFRAEQARRGGETHGGPGGAFFHAPGEDRYAKIMIDLEDSYHGATRTISLQVPEVDAEGHVSTREHKLNVVIPRGIRPRQYIRLAGKGAPGHGQGKAGDLYLEIEFRSHPIYRVDEHDVYLDLPVAPWEAALGATITVPTPEGMVDLKIPADSTTGRKLRLKGRGIPGKIPGDFYVVLRIVPPPATDESDKAFYRSMAEQFKSFNPRAKLGVQA | failed
MEFLDWKFIFIIITFAFIGLICIFKRSKIGLTAASVGIIGSLILWGFFKVSIKVRNFLDGVGLSFKDLLNFLFVVITAIIAFLVIFLFLKAFNNFGSKIRKR | failed
MEFPDLTVEIKGPDVVGVNKLAEYEVHVKNLGGIGVPSTKVRVYINGTLYKNWTVSLGPKEEKVLTFNWTPTQEGMYRINATVDEENTVVELNENNNVATFLEHHHHHH | not failed
MEFRFENLLGAPYRGGNAVITKNTQLISPVGNRVSVTDLSKNHSVTLPLETSTNICRLASSPDGTFLLAVDEQNRCLFINLPRRVVLHRITFKDKVGALKFSPNGKFIAVGIGKLVEIWRSPGFRRAVLPFERVRTFANSDDKVVSLEWSLDSDYLLVGSRDLAARLFCVRKLKGVLNKPFLFLGHRDSVVGCFFGVDKMTNKVNRAFTIARDGYIFSWGYTEKDVKMDESEDGHSEPPSPVTPDRADEVMVENGGGVGTELKKRKEYDGKGLESDEEGDDDDEEYMHRGKWVLLRKDGCNQASAKVTACDYHQGLDMVVVGFSNGVFGLYQMPDFICIHLLSISRQKLTTAVFNERGNWLTFGCAKLGQLLVWDWRTETYILKQQGHYFDVNCVTYSPDSQLLATGADDNKVKVWNVMSGTCFITFTEHTNAVTALHFMADNHSLLSASLDGTVRAWDFKRYKNYKTYTTPTPRQFVSLTADPSGDVVCAGTLDSFEIFVWSKKTGQIKDILSGHEAPVHGLMFSPLTQLLASSSWDYTVRLWDVFASKGTVETFRHNHDVLTVAFRPDGKQLASSTLDGQINFWDTIEGVLMYTIEGRRDIAGGRVMTDRRSAANSSSGKCFTTLCYSADGGYILAAGTSRYICMYDIADQVLLRRFQISHNLSLDGVLDFLHSKKMTEAGPIDLIDDDNSDEEGGIDKQSRGNLGYDLPGSRPNRGRPIIRTKSLSIAPTGRSFAAATTEGVLIFSIDDTFIFDPTDLDIDVTPEAVEAAIEEDEVSRALALSMRLNEDSLIKKCIFAVAPADIKAVAISVRQKYLERLMEALVDLLENCPHLEFILHWCQEICKAHGSSIQRNYRTLLPALRSLQKAITRAHQDLADMCSSNEYTLRYLCSVPNNH | failed
MEFVLASASPARRRLLQGIGINPIVHVSHFDESQIHHDDPAQLVEALAAAKAKTVAQHRQDALILGCDSVLHVRGEILGKPASPTEAIARWQTMRGHYGLLYTGHALVDQTQNQLLVRHGVTKVYFAAIDDDTIAAYVRSGEPLQCAGCFALEGKGGLFIEKIEGCHSNVIGLSLPLLREMLAHLGYTVQTLWP | failed
MEGAEEAGAEIAVDSKDLQQQSKAFDKLTDRVEDRQLDSSRVQSAMASIAASREADLNAKRLREKELASVKINPADVEFIVNELEIEKNVAERTLREHKGDAVAATRQLLSRYPL | failed
MEGIVSIVFSTYNNREKALKCIESCLKQKYNKLFVIVADDGSNDGSQELFKKIQEKDSRFKFIPLVHKERGIARGKAISLAKKLESEYIYIIDSDMILEDNLIEKCMSFFNKNKNVGALIVPEYAFSEYENFYSKVKVFERNIINNSGEDMGKNSIEAARFWRMDAYDLSGGINPSQISFEETQPTIRYVEKGGVVKRAVFTKVYHDEKFVTLRNLLKKKMYYFSVMDKTIQSEEGGFIKTLKRWYFFRPVLYRGSNLKRYLRHPILTIGMINMYVILTLVGVSQILKRKK | failed
MEGNCSQGRFDSQVSSMRDLRPNAINQNQKQHHPNSRQDSGFNNTMDTRHNNVDRGKKSMSEDDELCLLSSDGQNKSKENSPWQRVKWMDKMVKLMITALSYIGEDSGSDKKFAVLQKKGKWRSVSKVMDERGYHVSPQQCEDKFNDLNKRYKKLNEMLGRGTSCEVVENPSLLDKIDYLNEKEKDEVRRIMSSKHLFYEEMCSYHNGNRLHLPHDPAVQRSLHLITLGSRDDHDNDEHGKHQNEDLDDDDDYEEDHDGALSDRPLKRLRQSQSHEDVGHPNKGYDVPCLPRSQADVNRGISLDSRKAAGLQRQQIESKSLELEGRKLQIQAEMMELERQQFKWEVFSKRREQKLAKMRMENERMKLENERMSLELKRIELGAKL | failed
MEGSIASRARLPRATQMAVATLDTNPRMRRPPREPAPPPSPLHQLVVTLATGKWLLLAVALLGGILAGLAGFTRPVLFEAATQIIIDAPSTGTANATATAQDSLDSSIDDHLTMLSSQAHLRRVLTALRQPQAADAAGKSGISAVPPTSGSFVGNLLSRVWSKGGPAAESPEAVDAAALKTLRSGMRVGQELRSRVITIGFTDTSPVRAALVANTFAQVYIEDLVQKRRASDQRELESLVASLPQVQRDLVDATDRLETYRLTHGAVDQSAANNAANETAELGRQIFLSKANLSASESRLRHIEDLRKAGAPVSAIAEEIGSPVLTDLVARQSGAAADGDLGTAINREIEQGIARIAAEANVYRAQVAALEDRKRVRDAAVADTASQLSGLRALEPQVTIVTQHYNELLGRQQDLIRRIAAPSPGVAVLSTAWPPSNPITLPRIFLVPPGMIVFGLMAAVFVLVRNMFNQTLRSEAEAEAELGIPCVGLLPKVSGLHARQLRHLVLVQQNSPFSRAATSLLVTAAPTQGKGQPPHMILVTSSILDDGKTELAWSLALAATRLGGRVLFLDLDRKDARLTNEFRGEFGTIKAHNSFGDYVSERCVLQDAITRMPEIGIDLMAAPGPSEDLLTLLSTVDKSQFTEELLSVYDVVIINGPLGLGGPETRLLKRWADAVLFAVRWAKTRRSIARGVLESLRAGGSVTVPIGSVLTQVNLKRYAGSRLDDNADLLLERV | failed
MEGSIDHHVRKAIQIGVNPLQAIQMASLNAAECFKLAKKGAIAPGFTADLLFIEDLQSLAITHVFKNGTCVAKNGKLIVPLEHHHHHH | failed
MEGSLSRGVEIMKLRELVARSRSIRRFDEHVAVNDATLRDLVELVCYTPSAANRQLLRFLPVTGADMSDKVFPCLKWAGYLEDWPGPEPGERPAAALVMLCRNEDLPGAACDSGIAAQTIMLGAAEKELGGCIVAAIDRERLMASLGIPDAWTVLLVIALGKPAETVVIDQIKPGDDIRYWRDKHGIHHVPKRQVDELLVTAEQLRERG | not failed
MEGTVFTPCLEGMKHVKSDQGEMLTKPFLELCKTILPVIDKFGAAMTLVKSDIGGNITRLEKNYLSDPDKFKYLYTFVQVEIESKIAKGSSSCTNGLLWLTRAMDFLVELFRNLVAHQDWSMPQACADSYQKTLKKWHGWLASSTFSMALKLAPDRKKFMDVISGSGNIQADMERFCAEFGPFLHDNHKFLASVGMDDMKAS | not failed
MEHASKRDTMAPSGTIPGNGGVNAPSAARVDWVDYAKGICIVMVVMMHSVLGVELAAGETGFMHVAVAFAKPFRMPDFFLISGLFLSLVIDRDWRTYLDRKVVHFAYFYVVWVTIQFGFKAPAFAAETSWREVGLLYLESFIEPFGTLWFIYLLPVFFVVTKLTRRVPPLAIWLIAAALETARIATGWTAIDEFCARFVYFYSGYLFAPYVFALSDRARSHPGPALAALATWALINAGLVAYGASEWKVVSLVLGFAGACAIITMGTLLARAQWLNFFRFCGEHSIVIYLAFFLPMAATRTLLLRTGVIPDIGTVSLIVTIAGVLGSLAIWQAALRLGADFLFERPDAFWIAPKKAGVRLQAAE | failed
MEHSSMPLWLSSFEEEIDTYIFISSRDNKLYLGILRTYDQHGNVFLTHCVEKIIVPEKNYFSDVYVGNLIIRGDNIAYFGSVDEEKYCKMFDYTIKNDNDEEHNNMDMIKNKKEYSSSENIILVYKPINHILKFIPENNADSSIFEN | failed
MEIFLWKDNRFHHQLRLLWHMCRGRNGTACLLLMKHFAAVRYLKLCTNHLWEVAGNMMNSNMNRRNVQYRQDRQPMPQPAVQPQCQPSCQTCPGTCNDGSMMTGNNGNPQMMPAGGPGPERRPMPVPDHQTLMNEIYQLGFAIVETVLYLDTHPSDADALNYYNQIKRRYSHVMEMYSREYGPLLNTNVMNDNYWSWVATPMPWEVEGC | failed
MEIGIIGTGNIGGTLARKLIAAGHQVRVANSKGIHGVQSFADEIGATAVDVYGAVKGADAIILSIPLPALASLPNGFFDDLPETVPLIDTSNYYPGLRDPLIPEIDDGMTESVWVSQQLSHPVIKAFNNILAWSLAELGTPKGSASRLAIAVAGDNATLKQIVMNLVDDTGFDAIDAGSLEESWRQQPSTPAYCCDYDAETMKKGLTAAVRGEAASKRDRLPLEHHHHHH | failed
MEIKQPAELSHVLTMTHRNLLKMWHNPDNVSDVVIQPIIFTLLFGYLFGGAIAGSVQAYLPMLVTGILIQSILNAASGSGQQLREDINAGVFDRFKTLPISPIVPLAGQLVGDVFRLLISGLMALVTAFMMGWRPIVSPLVLIGVLLLAVFVGWSLSWVFALVGLMVKNAALIGSLSMIIILVLTFLSNAFIPTKTLPHLLQTIVRLNPVSLTITAMRTILRTGHWGPDAFGVLLSGFLIIVIFMPLTVLAYRRFG | failed
